Source: publication PMC6774396 (Frontiers in Immunology, 2019)
Positions count from the first letter of the chain named.

B1: WT: wild-type human L-selectin, C-terminally tagged with GFP or RFP, expressed in THP-1 cells (protein)
chain: WTYHYSEKPMNWQRARRFCRDNYTDLVAIQNKAEIEYLEKTLPFSRSYYWIGIRKIGGIWTWVGTNKSLTEEAENWGDGEPNNKKNKEDCVEIYIKRNKDAGKWNDDACHKLKAALCYTASCQPWSCSGHGECVEIINNYTCNCDVGYYGPQCQFVIQCEPLEAPELGTMDCTHPLGNFSFSSQCAFSCSEGTNLTGIEETTCGPFGNWSSPEPTCQVIQCEPLSAPDLGIMNCSHPLASFSFTSACTFICSEGTELIGKKKTICESSGIWSNPSPICQKLDKSFSMIKEGDYNPLFIPVAVMVTAFSGLAFIIWLARRLKKGKKSKRSMNDPY
modifications: left off: eGFP (donor copy) or mCherry (acceptor copy, called RFP), C-terminal, kept
B2: SSAA: L-selectin with Ser^364 and Ser^367 both mutated to alanines (protein)
chain: B1 chain with S326A, S329A
modifications: left off: eGFP (donor copy) or mCherry (acceptor copy, called RFP), C-terminal, kept

What was measured:
[1] = tested on: THP-1 cells on immobilized biglycan; conditions: isolated THP-1 cells, L-selectin-GFP/RFP; cited from earlier work
Source text: This figure pieces together data from our recently published work ([8], [23]) with our data from this study. (A,B) In cells expressing WT L-selectin, clustering is only witnessed within pseudopods of transmigrating cells. […] Moesin-driven clustering is a pre-requisite for L-selectin shedding, and so the balance of L-select ...

THP-1 cells = assay: Antibody-mediated clustering (AMC) of L-selectin-GFP/RFP, FLIM/FRET; type: cell-based, human; conditions: for change in FRET efficiency on AMC or versus comparator (in words) / FRET efficiency after AMC: DREG56 plus secondary antibody; for FRET efficiency after AMC: 10 min at 37°C, GFP/RFP pair
Source text: (A) Schematic representation of the cleavage site, transmembrane domain (TMD), and cytoplasmic tail of human L-selectin. Red underlined region of the cleavage site denotes the amino acids that are deleted in ΔM-N L-selectin. […] Red arrow points to the position of the cut site of the L-selectin cleavage domain. (B) Cells expressing matched levels of L-selectin-GFP/RFP in the following forms: WT, ΔM-N, SSAA, ΔM-N^SSAA, and R357A were subjected to AMC using Alexa Fluor 647-conjugated DREG56 or isotype-matched control, followed by goat anti-mouse secondary antibody (see Materials and Methods for more detail). Cells were plated onto poly-L-lysine-coated coverslips and prepared for FLIM/FRET analysis (see materials and methods). FLIM was used to measure the FRET efficiency between the GFP/RFP donor/acceptor pairs as a direct function of cytoplasmic tail clustering […]. At least 45 individual cells were analyzed over 3 independent clustering assays. (C) Representative images are shown for each cell line. The lifetime of fluorescence (Lftm) is expressed in a pseudocolour scale from red (low lifetime with a very high probability of interaction) to blue (high lifetime with a very low probability of interaction). […] Cells were lysed directly in protein loading buffer (containing the reducing agent, dithiothreitol) and resolved onto standard (lower panel) or phos-tag (upper panel) polyacrylamide gels. Antibodies to GFP and RFP were used to, respectively, probe ΔM-N and ΔM-N^SSAA on Western blots. […] Statistics: One-Way ANOVA Tukey's multiple comparison test. **p ≤ 0.01; ***p ≤ 0.001; ****p ≤ 0.0001.
THP-1 cells were adjusted the night before AMC to a density of 0.5 ×10^6 cells per mL. On the same day, 13 mm diameter glass coverslips (thickness “1”) were placed into the base of a 24 well dish, spotted with 100 μL of poly-L-lysine (PLL) to immobilize according to manufacturer's instruction. On the day of the assay, THP-1 cells were counted and adjusted to a density of 1 ×10^6 per mL in 500 μL containing antibody labeling buffer (RPMI culture medium containing FcR block [Miltenyi Biotec]). Cells were labeled with 2 μg per mL DREG56 for 30 min at 4°C, followed by washing (by centrifugation at 300 g and resuspension) in ice cold culture media to remove excess unbound antibody and then incubated back in ice cold labeling buffer containing secondary antibody conjugated to Alexa Fluor […] (Thermo Fisher) for a further 30 min at 4°C. Cells were then washed twice in ice cold neat RPMI and resuspended to 100 μL of neat ice cold RPMI before 80 μL of the cell suspension was seeded onto 13 mm diameter glass coverslips (thickness = “1”), which were pre-coated with PLL-coated the night before. The seeded cells were placed into a humidified cell culture incubator at 37°C and 5% CO2 for 10 min to drive clustering. Adhered cells were flooded in excess 4% paraformaldehyde and fixed for 15 min at room temperature. Fixed coverslips were washed 3 times in PBS and then treated in 10 mg/mL of Sodium Borohydride dissolved in phosphate buffered saline for 10 min at room temperature (to eliminate autofluorescence and enhance signal to noise ratios). Coverslips were subsequently washed in PBS to remove sodium borohydride and mounted using DAKO mounting medium.
FLIM measurement of FRET was performed with a multiphoton microscope system as described previously ([8], [23]). A Nikon TE2000E inverted microscope, combined with an in-house scanner and Chameleon Ti:Sapphire ultrafast pulsed multiphoton laser (Coherent Inc.), was used for excitation of GFP (at 890 nm). Fluorescence lifetime imaging capability was provided by time-correlated, single-photon counting electronics (SPC 700; Becker & Hickl). A 40 × objective (NA 1.3) was used throughout (CFI60 Plan Fluor; Nikon), and data were acquired at 500 ± 20 nm through a bandpass filter (35–5040; Coherent Inc.). […]

[2] = at least 45 cells, 3 independent assays

Molecule | clustering on immobilized biglycan [1] | change in FRET efficiency on AMC or versus comparator (in words) (THP-1 cells) | FRET efficiency after AMC (THP-1 cells; [2]) [%] | FRET efficiency without AMC (THP-1 cells; WT L-selectin-GFP/RFP before AMC (isotype-matched control), at least 45 cells, 3 independent assays) [%]
B1 | can cluster when seeded onto immobilized biglycan | significantly increased the FRET efficiency | 12.39 | 1.35
B2 |  | modest but significant drop in FRET efficiency compared to WT L-selectin | 9.25 | 
